Measurements published in US20160024208A1 (Regeneron, published 2016).

T1: C-term Biotin Nav1.7 (3-1) peptide, human (human, not fully specified; C-terminal biotin attached via a G4S linker)
T1 construct: Synthetic peptide; also called Human Nav1.7 3-1 C-term biotin
T1 peptide: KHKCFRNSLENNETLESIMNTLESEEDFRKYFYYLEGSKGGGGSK

T2: Native Nav1.7 (3-1) peptide, human (human)
T2 construct: Synthetic peptide (Celtek), unbiotinylated; also called Human Nav1.7 3-1 native; Nav1.7 3-1 native peptide
T2 peptide: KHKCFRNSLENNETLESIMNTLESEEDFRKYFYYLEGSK

T3: N-Term Biotin Nav1.7 (3-1) peptide, mouse (mouse, not fully specified; N-terminal biotin attached via a G4S linker)
T3 construct: Synthetic peptide; also called Mouse Nav1.7 3-1 N-term biotin
T3 peptide: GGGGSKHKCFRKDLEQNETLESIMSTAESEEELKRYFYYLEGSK

T4: N-Term Biotin Nav1.7 (3-1) peptide, mulatta (mulatta (monkey), not fully specified; N-terminal biotin attached via a G4S linker)
T4 construct: Synthetic peptide; also called Mulatta Nav1.7 3-1 N-term biotin; monkey
T4 peptide: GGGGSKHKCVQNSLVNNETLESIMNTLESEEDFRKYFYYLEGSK

T5: Native Nav1.7 (3-1) peptide, rat (rat)
T5 construct: Synthetic peptide; also called Rat Nav1.7 3-1 native
T5 peptide: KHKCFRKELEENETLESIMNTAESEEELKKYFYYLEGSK


Columns and labels:
[1] = target: T1, C-term Biotin Nav1.7 (3-1) peptide, …; assay: SPR, captured biotin-peptide, antibody analyte
[2] = target: T6, full-length human Nav1.7 fused at its N-terminus to GFP, expressed in HEK293 cells (human, UniProt Q15858 1-1988); assay: cell-based or functional assay
[3] = target: T6, full-length human Nav1.7 fused at its …; assay: flow cytometry; % stained hNav1.7-GFP-HEK293 minus parental HEK293
Outline: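 Antibody (1-13 nM) incubated 20 min on ice with stably transfected hNav1.7-GFP-HEK293 or parental HEK293 cells in PBS/5% FBS, then 1.7 nM Cy5- or APC-labelled anti-Fc secondary for 20 min on ice. Flow cytometry of live-gated cells; specific binding = % stained transfected minus % stained parental.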

[4] = target: T2, Native Nav1.7 (3-1) peptide, human; assay: SPR, captured antibody, peptide analyte
Outline: (§1)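 Biacore SPR: antibody captured via Fc on anti-Fc surface, Nav1.7 loop peptides injected as analyte at several concentrations. Double-referenced sensorgrams globally fitted to a 1:1 model; KD = kd/ka, t1/2 = ln2/kd.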

[5] = target: T3, N-Term Biotin Nav1.7 (3-1) peptide, …; assay: SPR, captured antibody, peptide analyte
Outline: as §1

[6] = target: T4, N-Term Biotin Nav1.7 (3-1) peptide, …; assay: SPR, captured antibody, peptide analyte
Outline: as §1

[7] = target: T5, Native Nav1.7 (3-1) peptide, rat; assay: SPR, captured antibody, peptide analyte
Outline: as §1

Binder	Kd [1] [nM]	t1/2 [1] [min]	Current blocking (Average % inhibition), IonWorks Quattro, 223 nM antibody [2] [%]	% Binding Nav1.7 [3] [%]	Kd [4] [nM]	t1/2 [4] [min]	Kd [5] [nM]	t1/2 [5] [min]	Kd [6] [nM]	t1/2 [6] [min]	Kd [7] [nM]	t1/2 [7] [min]	binding result [5]	binding result [7]	binding result [1]
H1M797N (antibody, V domains shown) VH: QVQLVESGGGVVQPGRSLRLSCAASGFTFSSYGMHWVRQAPGKGLEWVAVISYDGNNKHFADSVKGRFTISRDNSKNTLNLQMNSLRAEDRAVYYCARGASGFVLDIWGQGTMVTVSS VL: DIVMTQTPLSSPVTLGQPASISCRSSQSLVRSDGNTYLSWLQQRPGQPPRLLIYKISNRFSGVPDRFSGSGAGTDFTLKISRVEAEDVGIYFCMQTTQFPFTFGPGTKVDIK	0.359	99.1	-31	14.4	0.462	16	7.4	4.6	0.435	43.7	2.57	5.8	–	–	–
H1M801N (antibody, V domains shown, also called H1H801N) VH: QVQVVESGGGVVQPGRSLRLSCAASGFTFSNYGMHWVRQAPGKGLEWVTVISYDGSNKNYADSVKGRFTISRDNSKNTLYLQMNSLRAEDTAMYYCARGGSGFAFDIWGQGTMVTVSS VL: DIVMTQTPLSSPVTLGQPASISCRSSQSLVRSDGNTYLSWLQQRPGQPPRLLIYKISNRFSGVPDRFSGSGAGTDFTLKISRVEADDVGVYYCMQTTQFPFTFGPGTKVDIK	0.511	71	–	49.5	3.73	4.3	3.53	4.2	0.889	16.8	4.16	3.6	–	–	–
H1M879N (antibody, V domains shown, Hybridoma-derived) VH: EVQLVESGGGLVKPGGSLRLSCAASGFTFSSYTIHWVRQAPGKGLEWVSSISSSSSYIYYVDSVKGRFTISRDNAKNSVYLQMNSLRAEDTAVYYCATSSITARGYFDYWGQGTLVTVSS VL: EIVLTQSPATLSLSPGERVTLSCRASQSVSSYLAWYQQKPGQAPRLLIYDASNRATGIPARFSGSGSGTDFTLTISSLEPEDFAVYYCQQRNIWPPTFGQGTKVEIK	0.27	87	–	63	4.43	3	–	–	1.05	11.7	–	–	no binding	no binding	–
H1M836N (antibody, V domains shown) VH: QVQLVESGGGVVQPGRSLRLSCAASGFTFSSYGMHWVRQAPGKGLEWVAVISYDGNNKYYADSVKGRFTISRDNSKNTLYLQMNSLRAEDTAVYYCAKGSAGYALDYWGQGTLVTVSS VL: not shown	19.2	3.8	–	68.9	332	0.3	–	–	18.1	1.7	298	0.1	–	–	–
H1M852N (antibody, V domains shown, constant region may differ; also called H4H852N) VH: QVQLVESGGGVVQPGRSLTLSCAASGFMFNRFGMHWVRQAPGKGLDWVAVIWYDGSNKYYADSVKGRFTISRDNSKNTLYLQVNSLRAEDTAVYYCAREGTPHYYDSSGLDYWGQGTLVTVSS VL: AIQMTQSPSSLSAYVGDRVTITCRASQDIRNDLGWYQQKPGKAPNLLIYDISSLQSGVPSRFSGSGSGTDFTLTISSLQPEDFATYYCLQDYNYPLTFGGGTKVEIK	–	–	7	68.6	–	–	–	–	–	–	–	–	–	–	no binding
H1H1006B (antibody, V domains shown, Fully human antibody; also called H4H1006B-1) VH: EVQLVESGPGLVKSSETLSLKCTVSGGSISSSGYYWGWIRQPPGKGLEWIGSIHRSGSTFYNPSLKSRVTISVDTSKSQFSLRLTSVTAADTSVYFCGRHGRDYYYGMDVWGQGTTVTVSS VL: DIQMTQSPSSVSASVGDRVTITCRSSQDINNWLVWYQQKPGKAPKVLIYGASRLQSGVPSRFSGSGSGTDFTLTISSLQPEDFATYYCQQANSFPLTFGGGTKVEIKR	0.239	81.7	64	8.6	16.4	3.3	103	0.62	6.1	7.5	33.9	0.74	–	–	–
